Data published in patent publication KR20210028556A (dated 2021).

Tests used:
[1] = target: T1, 인간 ROR2 (세포 표면 발현, CHO-human ROR2) (human, UniProt Q01974 34-943); test: flow cytometry, CHO-human ROR2 cells
T1 construct: whole, on cells; negative control, transiently overexpressed on CHO cells

[2] = target: T2, 재조합 인간 ROR1-His (Sino Biological, 13968-H08H) (human, UniProt Q01973 30-403); test: BLI (Octet), ROR1-His on the sensor, 1:1 fit
T2 construct: bought protein

인간 ROR1 (세포 표면 발현) = target: T3, 인간 ROR1 (세포 표면 발현) (human, UniProt Q01973 30-937); test: flow cytometry, JeKo-1 and Mino cells
T3 construct: whole, on cells; endogenous on JeKo-1, Mino and other human cancer lines; overexpressed on CHO and MC38 cells; also called hROR1; CHO-human ROR1

[3] = target: T4, 재조합 마우스 ROR1 단백질 (Acrobiosystems, RO1-M5221) (mouse, UniProt Q9Z139 30-406); test: ELISA, IgG on coated recombinant mouse ROR1
T4 construct: extracellular domain; bought protein; also called 마우스 ROR1 항원

[4] = target: T5, 마우스 ROR1 (세포 표면 발현, CHO-mouse ROR1) (mouse, UniProt Q9Z139 30-937); test: flow cytometry, CHO-mouse ROR1 cells
T5 construct: whole, on cells; transiently overexpressed on CHO cells

[5] = target: T6, 인간 ROR1 항원 (ELISA 코팅: 실시예 1의 ROR1-Fc 또는 재조합 인간 ROR1-His) (human, UniProt Q01973 30-406); test: ELISA, IgG on coated human ROR1 protein
T6 construct: extracellular domain; tag therefore open
T6 sequence (Q01973 30-406): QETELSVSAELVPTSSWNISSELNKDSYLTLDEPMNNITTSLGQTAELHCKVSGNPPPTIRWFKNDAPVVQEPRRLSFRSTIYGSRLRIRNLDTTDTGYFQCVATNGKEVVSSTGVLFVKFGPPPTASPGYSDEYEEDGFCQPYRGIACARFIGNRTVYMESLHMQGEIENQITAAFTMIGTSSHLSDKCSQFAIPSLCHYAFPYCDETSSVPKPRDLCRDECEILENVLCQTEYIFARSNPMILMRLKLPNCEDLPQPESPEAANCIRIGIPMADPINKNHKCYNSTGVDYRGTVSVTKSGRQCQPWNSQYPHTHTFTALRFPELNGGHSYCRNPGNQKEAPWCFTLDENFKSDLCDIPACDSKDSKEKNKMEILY

T1 sequence (Q01974 34-943): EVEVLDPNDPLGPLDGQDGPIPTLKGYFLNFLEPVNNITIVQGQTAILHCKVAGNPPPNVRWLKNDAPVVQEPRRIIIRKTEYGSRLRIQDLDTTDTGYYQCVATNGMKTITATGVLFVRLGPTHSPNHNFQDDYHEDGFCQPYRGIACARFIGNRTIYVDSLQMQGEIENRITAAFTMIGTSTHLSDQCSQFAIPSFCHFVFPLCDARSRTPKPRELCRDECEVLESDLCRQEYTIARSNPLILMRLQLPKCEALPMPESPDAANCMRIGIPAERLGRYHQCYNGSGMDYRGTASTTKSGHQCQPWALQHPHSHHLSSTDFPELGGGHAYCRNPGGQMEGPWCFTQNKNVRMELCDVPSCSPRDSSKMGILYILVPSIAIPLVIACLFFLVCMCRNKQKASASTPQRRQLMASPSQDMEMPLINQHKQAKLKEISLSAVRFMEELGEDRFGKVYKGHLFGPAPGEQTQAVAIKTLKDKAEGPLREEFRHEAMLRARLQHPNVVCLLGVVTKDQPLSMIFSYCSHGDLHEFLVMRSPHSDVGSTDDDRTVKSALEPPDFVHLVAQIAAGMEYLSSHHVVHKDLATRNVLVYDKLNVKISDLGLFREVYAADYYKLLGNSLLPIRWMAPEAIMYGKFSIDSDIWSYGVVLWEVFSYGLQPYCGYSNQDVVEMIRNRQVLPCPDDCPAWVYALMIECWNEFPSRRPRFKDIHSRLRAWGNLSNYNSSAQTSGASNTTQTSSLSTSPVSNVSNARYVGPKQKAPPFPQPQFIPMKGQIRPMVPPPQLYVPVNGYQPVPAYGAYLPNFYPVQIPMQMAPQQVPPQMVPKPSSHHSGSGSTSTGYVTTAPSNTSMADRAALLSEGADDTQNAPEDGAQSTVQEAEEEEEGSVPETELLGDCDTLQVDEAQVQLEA
T4 sequence (Q9Z139 30-406): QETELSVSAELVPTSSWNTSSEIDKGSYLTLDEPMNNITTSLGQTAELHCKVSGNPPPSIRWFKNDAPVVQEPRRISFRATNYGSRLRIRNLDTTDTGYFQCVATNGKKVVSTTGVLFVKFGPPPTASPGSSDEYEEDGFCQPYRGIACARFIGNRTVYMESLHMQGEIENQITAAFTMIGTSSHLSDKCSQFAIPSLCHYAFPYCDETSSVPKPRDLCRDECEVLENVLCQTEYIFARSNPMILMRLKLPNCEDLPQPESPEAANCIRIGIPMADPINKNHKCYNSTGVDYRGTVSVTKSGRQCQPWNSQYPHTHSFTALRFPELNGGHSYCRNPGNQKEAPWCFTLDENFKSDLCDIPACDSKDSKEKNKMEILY
T5 sequence (Q9Z139 30-937): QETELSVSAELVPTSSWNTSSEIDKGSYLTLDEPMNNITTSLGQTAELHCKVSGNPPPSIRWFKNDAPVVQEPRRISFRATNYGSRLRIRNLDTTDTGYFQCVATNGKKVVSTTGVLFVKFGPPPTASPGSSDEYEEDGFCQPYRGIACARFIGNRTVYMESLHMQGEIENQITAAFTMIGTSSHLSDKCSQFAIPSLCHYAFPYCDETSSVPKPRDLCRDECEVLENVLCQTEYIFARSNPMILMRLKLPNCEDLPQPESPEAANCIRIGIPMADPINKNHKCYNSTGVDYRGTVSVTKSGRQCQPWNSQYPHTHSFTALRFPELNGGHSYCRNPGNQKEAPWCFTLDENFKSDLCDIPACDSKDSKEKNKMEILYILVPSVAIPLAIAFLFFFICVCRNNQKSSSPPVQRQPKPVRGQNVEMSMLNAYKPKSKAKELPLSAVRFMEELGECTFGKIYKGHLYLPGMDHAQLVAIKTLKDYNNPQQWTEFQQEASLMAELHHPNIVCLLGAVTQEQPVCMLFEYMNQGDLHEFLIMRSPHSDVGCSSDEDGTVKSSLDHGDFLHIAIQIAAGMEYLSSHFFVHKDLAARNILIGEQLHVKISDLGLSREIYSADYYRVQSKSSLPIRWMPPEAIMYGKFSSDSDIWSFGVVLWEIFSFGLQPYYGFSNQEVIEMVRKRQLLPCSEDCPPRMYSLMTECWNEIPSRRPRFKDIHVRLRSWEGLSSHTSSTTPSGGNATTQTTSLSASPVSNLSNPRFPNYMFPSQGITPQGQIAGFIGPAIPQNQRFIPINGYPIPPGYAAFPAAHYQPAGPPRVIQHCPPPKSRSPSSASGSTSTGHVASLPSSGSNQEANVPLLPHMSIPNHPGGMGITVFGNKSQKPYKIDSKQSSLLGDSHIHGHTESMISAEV
T3 sequence (Q01973 30-937): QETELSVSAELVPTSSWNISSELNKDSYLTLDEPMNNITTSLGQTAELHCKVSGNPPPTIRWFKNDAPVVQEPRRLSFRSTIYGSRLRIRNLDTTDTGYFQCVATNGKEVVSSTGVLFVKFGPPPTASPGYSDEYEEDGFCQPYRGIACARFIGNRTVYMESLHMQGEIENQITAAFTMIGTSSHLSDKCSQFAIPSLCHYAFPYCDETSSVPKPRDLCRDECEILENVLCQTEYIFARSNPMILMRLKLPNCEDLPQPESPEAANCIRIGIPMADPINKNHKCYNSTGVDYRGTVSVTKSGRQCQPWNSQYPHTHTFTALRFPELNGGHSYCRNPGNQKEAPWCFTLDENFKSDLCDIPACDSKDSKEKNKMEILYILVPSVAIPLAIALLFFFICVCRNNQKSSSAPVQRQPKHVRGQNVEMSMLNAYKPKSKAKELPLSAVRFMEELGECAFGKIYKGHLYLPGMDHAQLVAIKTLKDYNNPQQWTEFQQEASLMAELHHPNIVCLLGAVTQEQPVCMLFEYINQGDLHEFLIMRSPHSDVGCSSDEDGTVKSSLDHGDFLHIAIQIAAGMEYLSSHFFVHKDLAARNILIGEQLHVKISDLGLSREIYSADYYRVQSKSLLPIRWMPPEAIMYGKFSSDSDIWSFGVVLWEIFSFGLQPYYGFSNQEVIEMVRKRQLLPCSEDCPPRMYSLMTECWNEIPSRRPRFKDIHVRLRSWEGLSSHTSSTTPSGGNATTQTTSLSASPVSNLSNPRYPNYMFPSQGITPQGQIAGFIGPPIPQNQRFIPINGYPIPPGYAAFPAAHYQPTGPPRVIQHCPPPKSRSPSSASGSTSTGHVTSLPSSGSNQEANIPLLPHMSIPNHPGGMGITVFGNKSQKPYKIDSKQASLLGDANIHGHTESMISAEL
T2 sequence (Q01973 30-403 limits assumed): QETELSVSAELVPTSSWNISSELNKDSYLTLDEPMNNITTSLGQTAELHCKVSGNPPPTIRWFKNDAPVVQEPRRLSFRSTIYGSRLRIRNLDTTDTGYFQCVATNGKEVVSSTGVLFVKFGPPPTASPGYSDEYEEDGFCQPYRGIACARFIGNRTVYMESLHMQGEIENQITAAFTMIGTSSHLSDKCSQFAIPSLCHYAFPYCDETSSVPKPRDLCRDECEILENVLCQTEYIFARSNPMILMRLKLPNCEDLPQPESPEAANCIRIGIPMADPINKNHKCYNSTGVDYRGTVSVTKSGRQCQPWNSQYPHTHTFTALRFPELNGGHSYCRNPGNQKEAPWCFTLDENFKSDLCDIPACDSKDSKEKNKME

| Binder | binding result [1] | binding result [2] | binding result (인간 ROR1 (세포 표면 발현)) | binding result [3] | binding result [4] | binding result [5] |
| --- | --- | --- | --- | --- | --- | --- |
| A2F2 (antibody, human IgG1, lambda, V domains shown, full IgG, human IgG1 heavy and lambda light constant regions; expressed in CHO-S; also called 항-ROR1 IgG 항체 A2F2) VH: EVQLLESGGGLVQPGGSLRLSCAASGFTFSDYYMSWVRQAPGKGLEWVSSISPDGSNTYYADSVKGRFTISRDNSKNTLYLQMNSLRAEDTAVYYCAKNLRAFDYWGQGTLVTVSS VL: QSVLTQPPPASGTPGQRVTISCSGSSSNIGSNTVYWYQQLPGTAPKLLIYANSQRPSGVPDRFSGSKSGTSASLAISGLRSEDEADYYCGSWDYSLSGYVFGGGTKLTVLG | no binding | binds | binds | binds | binds | binds |
| A2F2 M1 (antibody, human IgG1, lambda, V domains shown, full IgG, human IgG1 heavy and lambda light constant regions; expressed in CHO-S; also called 항-ROR1 IgG 항체 A2F2 M1) VH: EVQLLESGGGLVQPGGSLRLSCAASGFTFSDYYMSWVRQAPGKGLEWVSSISPDASNTYYADSVKGRFTISRDNSKNTLYLQMNSLRAEDTAVYYCAKNLRAFDYWGQGTLVTVSS VL: QSVLTQPPPASGTPGQRVTISCSGSSSNIGSNTVYWYQQLPGTAPKLLIYANSQRPSGVPDRFSGSKSGTSASLAISGLRSEDEADYYCGSWDYSLSGYVFGGGTKLTVLG | no binding | binds | binds | binds | binds | binds |
| BA6 (antibody, human IgG1, lambda, V domains shown, full IgG, human IgG1 heavy and lambda light constant regions; expressed in CHO-S; also called 항-ROR1 IgG 항체 BA6) VH: EVQLLESGGGLVQPGGSLRLSCAASGFTFSNYDMSWVRQAPGKGLEWVSAIYHSGSSKYYADSVKGRFTISRDNSKNTLYLQMNSLRAEDTAVYYCARGGNGAWDTGFDYWGQGTLVTVSS VL: QSVLTQPPSASGTPGQRVTISCSGSSSNIGSNDVSWYQQLPGTAPKLLIYYDNNRPSGVPDRFSGSKSGTSASLAISGLRSEDEADYYCGAWDDSLSGYVFGGGTKLTVLG | no binding | binds | binds | binds | binds | binds |
| BA6 M1 (antibody, human IgG1, lambda, V domains shown, full IgG, human IgG1 heavy and lambda light constant regions; expressed in CHO-S; also called 항-ROR1 IgG 항체 BA6 M1) VH: EVQLLESGGGLVQPGGSLRLSCAASGFTFSNYDMSWVRQAPGKGLEWVSAIYHSGSSKYYADSVKGRFTISRDNSKNTLYLQMNSLRAEDTAVYYCARGGNAAWDTGFDYWGQGTLVTVSS VL: QSVLTQPPSASGTPGQRVTISCSGSSSNIGSNDVSWYQQLPGTAPKLLIYYDNNRPSGVPDRFSGSKSGTSASLAISGLRSEDEADYYCGAWDDSLSGYVFGGGTKLTVLG | no binding | binds | binds | binds | binds | binds |
| AB4 (antibody, human IgG1, lambda, V domains shown, full IgG, human IgG1 heavy and lambda light constant regions; expressed in CHO-S; also called 항-ROR1 IgG 항체 AB4) VH: EVQLLESGGGLVQPGGSLRLSCAASGFTFSSYDMSWVRQAPGKGLEWVSWISPDSGSIYYADSVKGRFTISRDNSKNTLYLQMNSLRAEDTAVYYCARPTGRFDYWGQGTLVTVSS VL: QSVLTQPPSASGTPGQRVTISCSGSSSNIGNNNVNWYQQLPGTAPKLLIYYDNKRPSGVPDRFSGSKSGTSASLAISGLRSEDEADYYCGTWDASLSGYVFGGGTKLTVLG | no binding | – | – | binds | binds | – |
| A2F3 (antibody, human IgG1, lambda, V domains shown, full IgG, human IgG1 heavy and lambda light constant regions; expressed in CHO-S; also called 항-ROR1 IgG 항체 A2F3) VH: EVQLLESGGGLVQPGGSLRLSCAASGFTFSSYDMSWVRQAPGKGLEWVSWISPGGGSKYYADSVKGRFTISRDNSKNTLYLQMNSLRAEDTAVYYCARVNGRFDYWGQGTLVTVSS VL: QSVLTQPPSASGTPGQRVTISCSGSSSNIGNNNVSWYQQLPGTAPKLLIYADSHRPSGVPDRFSGSKSGTSASLAISGLRSEDEADYYCATWDYSLSGYVFGGGTKLTVLG | no binding | binds | binds | binds | binds | binds |
| CC9 (antibody, human IgG1, lambda, V domains shown, full IgG, human IgG1 heavy and lambda light constant regions; expressed in CHO-S; also called 항-ROR1 IgG 항체 CC9) VH: EVQLLESGGGLVQPGGSLRLSCAASGFTFSSYDMSWVRQAPGKGLEWVSGISHGSGNKYYADSVKGRFTISRDNSKNTLYLQMNSLRAEDTAVYYCAKRLSLRRRPSYYSDNAMDVWGQGTLVTVSS VL: QSVLTQPPSASGTPGQRVTISCTGSSSNIGNNAVNWYQQLPGTAPKLLIYYDSNRPSGVPDRFSGSKSGTSASLAISGLRSEDEADYYCGAWDDSLSGYVFGGGTKLTVLG | no binding | binds | binds | binds | binds | binds |
| DG6 (antibody, human IgG1, lambda, V domains shown, full IgG, human IgG1 heavy and lambda light constant regions; expressed in CHO-S; also called 항-ROR1 IgG 항체 DG6) VH: EVQLLESGGGLVQPGGSLRLSCAASGFTFSDYDMSWVRQAPGKGLEWVSVISPDGGSIYYADSVKGRFTISRDNSKNTLYLQMNSLRAEDTAVYYCARDVVECNMNPCSYDNAMDVWGQGTLVTVSS VL: QSVLTQPPSASGTPGQRVTISCSGSSSNIGSNYVSWYQQLPGTAPKLLIYDDSHRPSGVPDRFSGSKSGTSASLAISGLRSEDEADYYCGAWDDSLSGYVFGGGTKLTVLG | no binding | binds | binds | binds | binds | binds |
| D2B12 (antibody, human IgG1, lambda, V domains shown, full IgG, human IgG1 heavy and lambda light constant regions; expressed in CHO-S; also called 항-ROR1 IgG 항체 D2B12) VH: EVQLLESGGGLVQPGGSLRLSCAASGFTFSNYDMSWVRQAPGKGLEWVSSISPSSGSSIYYADSVKGRFTISRDNSKNTLYLQMNSLRAEDTAVYYCAKAPGWCQAPSCYYDNAMDVWGQGTLVTVSS VL: QSVLTQPPSASGTPGQRVTISCSGSSSNIGNNDVSWYQQLPGTAPKLLIYDDSQRPSGVPDRFSGSKSGTSASLAISGLRSEDEADYYCGAWDDSLSGYVFGGGTKLTVLG | no binding | binds | binds | binds | binds | binds |
| C2E3 (antibody, human IgG1, lambda, V domains shown, full IgG, human IgG1 heavy and lambda light constant regions; expressed in CHO-S; also called 항-ROR1 IgG 항체 C2E3; ROR1 단일클론항체(C2E3)) VH: EVQLLESGGGLVQPGGSLRLSCAASGFTFSNYAMSWVRQAPGKGLEWVSSISHNSGSTYYADSVKGRFTISRDNSKNTLYLQMNSLRAEDTAVYYCAKFISARKSLGRSYSNGMDVWGQGTLVTVSS VL: QSVLTQPPSASGTPGQRVTISCTGSSSNIGSNDVTWYQQLPGTAPKLLIYADSKRPSGVPDRFSGSKSGTSASLAISGLRSEDEADYYCGTWDYSLSGYVFGGGTKLTVLG | no binding | – | – | binds | binds | – |
